This data set deals with T1, PUF4 RNA-binding domain (Saccharomyces cerevisiae, UniProt P25339 537-888).
T1 sequence: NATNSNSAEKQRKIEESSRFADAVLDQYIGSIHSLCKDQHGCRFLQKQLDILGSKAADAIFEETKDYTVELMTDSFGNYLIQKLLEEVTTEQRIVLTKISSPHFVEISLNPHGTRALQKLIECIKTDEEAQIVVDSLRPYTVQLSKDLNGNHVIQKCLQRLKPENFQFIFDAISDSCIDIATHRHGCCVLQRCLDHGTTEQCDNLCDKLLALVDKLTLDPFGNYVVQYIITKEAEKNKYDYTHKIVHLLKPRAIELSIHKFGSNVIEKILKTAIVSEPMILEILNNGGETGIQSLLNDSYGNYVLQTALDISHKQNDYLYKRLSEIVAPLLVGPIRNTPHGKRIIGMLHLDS
Description: Mg; RNA-MaP; 20 mM Na-HEPES pH 7.4, 30 mM KOAc, 0.75 mM MgCl2, 0.1% Tween-20, 5% glycerol, 0.1 mg/mL BSA, 2 mM DTT; 25 C; 0.0125-409.6 nM protein. As to conditions: tags: N-His6-TEV cleaved; C-SNAP kept, Cy3B-labelled; label: tethered on chip by stalled RNA polymerase.

By Kd is commonly meant the concentration at which binding is half-saturated. Low readings indicate a tighter complex, high ones a looser complex. Turning to UCUCUUUCUAUACAUCUCUU (ssRNA) [Ib_S1_P3E.1_K3.1_C3.1_H3.1_[G2C]_A3.1_F3.1_[T7C]_T3.1], the dissociation constant Kd is > 2300 nM.
Next, UCUCUUUGUAUAAGUCUCUU (ssRNA) [Ib_S1_P3E.1_K3.1_C3.1_H3.1_A3.1_F3.1_[T7A]_[A8G]_T3.1]: 502 nM.
On to UCUCUUUGUACGGUUUCUCUU (ssRNA) [Ic_S1_P4E.1_K4.1_C4.1_H4.1_A4.1_[T5C]_[A6G]_[T7G]_F4.1_[A9T]_T4.1], for which the Kd was 360 nM.
Next, UCUCUUUGUACGCGAUCUCUU (ssRNA) [Ic_S1_P4E.1_K4.1_C4.1_H4.1_A4.1_[T5C]_[A6G]_[T7C]_F4.1_[T8G]_T4.1]: 727 nM.
For UCUCUUUGUAGUUCGUCUCUU (ssRNA) [Ic_S1_P4E.1_K4.1_C4.1_H4.1_A4.1_[T5G]_[A6T]_F4.1_[T8C]_[A9G]_T4.1], the Kd is > 2300 nM.
In turn, UCUCUUUGUAGUUCAUCUCUU (ssRNA) [Ic_S1_P4E.1_K4.1_C4.1_H4.1_A4.1_[T5G]_[A6T]_F4.1_[T8C]_T4.1] registered a Kd of 1570 nM.
Next, UCUCUUUGUAGUUCCUCUCUU (ssRNA) [Ic_S1_P4E.1_K4.1_C4.1_H4.1_A4.1_[T5G]_[A6T]_F4.1_[T8C]_[A9C]_T4.1]: 1260 nM.
The value for UCUCUUUGUAGUCGUUCUCUU (ssRNA) [Ic_S1_P4E.1_K4.1_C4.1_H4.1_A4.1_[T5G]_[A6T]_[T7C]_F4.1_[T8G]_[A9T]_T4.1] was 1600 nM; that for UCUCUUUGUACGGUCUCUCUU (ssRNA) [Ic_S1_P4E.1_K4.1_C4.1_H4.1_A4.1_[T5C]_[A6G]_[T7G]_F4.1_[A9C]_T4.1] was 1490 nM; that for UCUCUUUGUACGAUAUCUCUU (ssRNA) [Ic_S1_P4E.1_K4.1_C4.1_H4.1_A4.1_[T5C]_[A6G]_[T7A]_F4.1_T4.1] was 2.75 nM.
Next, UCUCUUUGUAGUUUCUCUCUU (ssRNA) [Ic_S1_P4E.1_K4.1_C4.1_H4.1_A4.1_[T5G]_[A6T]_F4.1_[A9C]_T4.1]: 365 nM; UCUCUUUGUAGUAUUUCUCUU (ssRNA) [Ic_S1_P4E.1_K4.1_C4.1_H4.1_A4.1_[T5G]_[A6T]_[T7A]_F4.1_[A9T]_T4.1]: 297 nM; UCUCUUUGUAUAACUCUCUU (ssRNA) [Ib_S1_P3E.1_K3.1_C3.1_H3.1_A3.1_F3.1_[T7A]_[A8C]_T3.1]: 47 nM.
With UCUCUUUGUAGUAACUCUCUU (ssRNA) [Ic_S1_P4E.1_K4.1_C4.1_H4.1_A4.1_[T5G]_[A6T]_[T7A]_F4.1_[T8A]_[A9C]_T4.1], the dissociation constant (Kd) was > 2300 nM.
UCUCUUUGUAGUCUUUCUCUU (ssRNA) [Ic_S1_P4E.1_K4.1_C4.1_H4.1_A4.1_[T5G]_[A6T]_[T7C]_F4.1_[A9T]_T4.1] came in with a Kd of 389 nM.
The value for UCUCUUUGUACGCAGUCUCUU (ssRNA) [Ic_S1_P4E.1_K4.1_C4.1_H4.1_A4.1_[T5C]_[A6G]_[T7C]_F4.1_[T8A]_[A9G]_T4.1] was 1140 nM.
Next, UCUCUUUGUACGCCAUCUCUU (ssRNA) [Ic_S1_P4E.1_K4.1_C4.1_H4.1_A4.1_[T5C]_[A6G]_[T7C]_F4.1_[T8C]_T4.1]: 29.5 nM; UCUCUUUGUAGUCUAUCUCUU (ssRNA) [Ic_S1_P4E.1_K4.1_C4.1_H4.1_A4.1_[T5G]_[A6T]_[T7C]_F4.1_T4.1]: 21.1 nM; UCUCUUUGUAGUAAUUCUCUU (ssRNA) [Ic_S1_P4E.1_K4.1_C4.1_H4.1_A4.1_[T5G]_[A6T]_[T7A]_F4.1_[T8A]_[A9T]_T4.1]: 1500 nM.
The value for UCUCUUUGUACGGCAUCUCUU (ssRNA) [Ic_S1_P4E.1_K4.1_C4.1_H4.1_A4.1_[T5C]_[A6G]_[T7G]_F4.1_[T8C]_T4.1] was 625 nM; that for UCUCUUUGUACGCUUUCUCUU (ssRNA) [Ic_S1_P4E.1_K4.1_C4.1_H4.1_A4.1_[T5C]_[A6G]_[T7C]_F4.1_[A9T]_T4.1] was 51 nM.
In the case of UCUCUUUGUAGUGUUUCUCUU (ssRNA) [Ic_S1_P4E.1_K4.1_C4.1_H4.1_A4.1_[T5G]_[A6T]_[T7G]_F4.1_[A9T]_T4.1], the dissociation constant (Kd) was 736 nM.
The value for UCUCUUUGUAGUAUGUCUCUU (ssRNA) [Ic_S1_P4E.1_K4.1_C4.1_H4.1_A4.1_[T5G]_[A6T]_[T7A]_F4.1_[A9G]_T4.1] was 278 nM; that for UCUCUUUGUACGGCCUCUCUU (ssRNA) [Ic_S1_P4E.1_K4.1_C4.1_H4.1_A4.1_[T5C]_[A6G]_[T7G]_F4.1_[T8C]_[A9C]_T4.1] was > 2300 nM; that for UCUCUUUGUACGCAUUCUCUU (ssRNA) [Ic_S1_P4E.1_K4.1_C4.1_H4.1_A4.1_[T5C]_[A6G]_[T7C]_F4.1_[T8A]_[A9T]_T4.1] was 425 nM.
Next, UCUCUUUGUAGUUUGUCUCUU (ssRNA) [Ic_S1_P4E.1_K4.1_C4.1_H4.1_A4.1_[T5G]_[A6T]_F4.1_[A9G]_T4.1]: 287 nM; UCUCUUUGUAGUCGGUCUCUU (ssRNA) [Ic_S1_P4E.1_K4.1_C4.1_H4.1_A4.1_[T5G]_[A6T]_[T7C]_F4.1_[T8G]_[A9G]_T4.1]: > 2300 nM.
The value for UCUCUUUGUAGUAUAUCUCUU (ssRNA) [Ic_S1_P4E.1_K4.1_C4.1_H4.1_A4.1_[T5G]_[A6T]_[T7A]_F4.1_T4.1] was 11.2 nM; that for UCUCUUUGUACGCCUUCUCUU (ssRNA) [Ic_S1_P4E.1_K4.1_C4.1_H4.1_A4.1_[T5C]_[A6G]_[T7C]_F4.1_[T8C]_[A9T]_T4.1] was 777 nM.
UCUCUUUGUAUAAUUCUCUU (ssRNA) [Ib_S1_P3E.1_K3.1_C3.1_H3.1_A3.1_F3.1_[T7A]_[A8T]_T3.1] yielded a Kd of 9.97 nM.
Regarding UCUCUUUGUAGUCCAUCUCUU (ssRNA) [Ic_S1_P4E.1_K4.1_C4.1_H4.1_A4.1_[T5G]_[A6T]_[T7C]_F4.1_[T8C]_T4.1], the equilibrium dissociation constant (Kd) stood at 1510 nM.
UCUCUUUGUAGUAUCUCUCUU (ssRNA) [Ic_S1_P4E.1_K4.1_C4.1_H4.1_A4.1_[T5G]_[A6T]_[T7A]_F4.1_[A9C]_T4.1] yielded a Kd of 590 nM.
UCUCUUUGUAGUACUUCUCUU (ssRNA) [Ic_S1_P4E.1_K4.1_C4.1_H4.1_A4.1_[T5G]_[A6T]_[T7A]_F4.1_[T8C]_[A9T]_T4.1] displayed an equilibrium dissociation constant (Kd) of 760 nM.
UCUCUUUGUACGCGUUCUCUU (ssRNA) [Ic_S1_P4E.1_K4.1_C4.1_H4.1_A4.1_[T5C]_[A6G]_[T7C]_F4.1_[T8G]_[A9T]_T4.1] returned a Kd of 1440 nM.
The value for UCUCUUUGUAGUCGCUCUCUU (ssRNA) [Ic_S1_P4E.1_K4.1_C4.1_H4.1_A4.1_[T5G]_[A6T]_[T7C]_F4.1_[T8G]_[A9C]_T4.1] was > 2300 nM; that for UCUCUUUGUAGUUGUUCUCUU (ssRNA) [Ic_S1_P4E.1_K4.1_C4.1_H4.1_A4.1_[T5G]_[A6T]_F4.1_[T8G]_[A9T]_T4.1] was 802 nM.
UCUCUUUGUAGUGUAUCUCUU (ssRNA) [Ic_S1_P4E.1_K4.1_C4.1_H4.1_A4.1_[T5G]_[A6T]_[T7G]_F4.1_T4.1] registered a Kd of 52.3 nM.
Next, UCUCUUUGUAGUUUUUCUCUU (ssRNA) [Ic_S1_P4E.1_K4.1_C4.1_H4.1_A4.1_[T5G]_[A6T]_F4.1_[A9T]_T4.1]: 118 nM; UCUCUUUGUAGUCACUCUCUU (ssRNA) [Ic_S1_P4E.1_K4.1_C4.1_H4.1_A4.1_[T5G]_[A6T]_[T7C]_F4.1_[T8A]_[A9C]_T4.1]: 1760 nM.
The value for UCUCUUUGUAGUACAUCUCUU (ssRNA) [Ic_S1_P4E.1_K4.1_C4.1_H4.1_A4.1_[T5G]_[A6T]_[T7A]_F4.1_[T8C]_T4.1] was 1720 nM; that for UCUCUUUGUACGGUGUCUCUU (ssRNA) [Ic_S1_P4E.1_K4.1_C4.1_H4.1_A4.1_[T5C]_[A6G]_[T7G]_F4.1_[A9G]_T4.1] was 503 nM; that for UCUCUUUGUAGUUCUUCUCUU (ssRNA) [Ic_S1_P4E.1_K4.1_C4.1_H4.1_A4.1_[T5G]_[A6T]_F4.1_[T8C]_[A9T]_T4.1] was 798 nM.
UCUCUUUGUACGCCCUCUCUU (ssRNA) [Ic_S1_P4E.1_K4.1_C4.1_H4.1_A4.1_[T5C]_[A6G]_[T7C]_F4.1_[T8C]_[A9C]_T4.1] yielded a Kd of 879 nM.
Take UCUCUUUGUAGUUAUUCUCUU (ssRNA) [Ic_S1_P4E.1_K4.1_C4.1_H4.1_A4.1_[T5G]_[A6T]_F4.1_[T8A]_[A9T]_T4.1]: binding was characterised by a dissociation constant (Kd) of 685 nM.
The molecule UCUCUUUGUACGAUUUCUCUU (ssRNA) [Ic_S1_P4E.1_K4.1_C4.1_H4.1_A4.1_[T5C]_[A6G]_[T7A]_F4.1_[A9T]_T4.1] registered a Kd of 22.7 nM.
The value for UCUCUUAGUAUACAUCUCUU (ssRNA) [Ib_S1_P3E.1_K3.1_C3.1_H3.1_[T1A]_A3.1_F3.1_[T7C]_T3.1] was > 2300 nM; that for UCUCUUUGUAGUCAUUCUCUU (ssRNA) [Ic_S1_P4E.1_K4.1_C4.1_H4.1_A4.1_[T5G]_[A6T]_[T7C]_F4.1_[T8A]_[A9T]_T4.1] was 971 nM.
The value for UCUCUUUGUACGGUAUCUCUU (ssRNA) [Ic_S1_P4E.1_K4.1_C4.1_H4.1_A4.1_[T5C]_[A6G]_[T7G]_F4.1_T4.1] was 13.4 nM.
In the case of UCUCUUUGUAGUCUCUCUCUU (ssRNA) [Ic_S1_P4E.1_K4.1_C4.1_H4.1_A4.1_[T5G]_[A6T]_[T7C]_F4.1_[A9C]_T4.1], binding was put at a Kd of 658 nM.
In the case of UCUCUUUGUACGCAAUCUCUU (ssRNA) [Ic_S1_P4E.1_K4.1_C4.1_H4.1_A4.1_[T5C]_[A6G]_[T7C]_F4.1_[T8A]_T4.1], binding was put at a Kd of 139 nM.
Next, UCUCUUUGUAGUCUGUCUCUU (ssRNA) [Ic_S1_P4E.1_K4.1_C4.1_H4.1_A4.1_[T5G]_[A6T]_[T7C]_F4.1_[A9G]_T4.1]: 406 nM; UCUCUUUGUAAAUAUCUCUU (ssRNA) [Ic_S1_P3E.1_K3.1_C3.1_H3.1_A3.1_[T5A]_F3.1_T3.1]: 28 nM; UCUCUUUGUACGAUGUCUCUU (ssRNA) [Ic_S1_P4E.1_K4.1_C4.1_H4.1_A4.1_[T5C]_[A6G]_[T7A]_F4.1_[A9G]_T4.1]: 23.8 nM.
Next, UCUCUUUGUAGUUACUCUCUU (ssRNA) [Ic_S1_P4E.1_K4.1_C4.1_H4.1_A4.1_[T5G]_[A6T]_F4.1_[T8A]_[A9C]_T4.1]: 982 nM; UCUCUUUGUACGCACUCUCUU (ssRNA) [Ic_S1_P4E.1_K4.1_C4.1_H4.1_A4.1_[T5C]_[A6G]_[T7C]_F4.1_[T8A]_[A9C]_T4.1]: 669 nM; UCUCUUUGUACGCGCUCUCUU (ssRNA) [Ic_S1_P4E.1_K4.1_C4.1_H4.1_A4.1_[T5C]_[A6G]_[T7C]_F4.1_[T8G]_[A9C]_T4.1]: 1130 nM.
The value for UCUCUUUGUAGUGUCUCUCUU (ssRNA) [Ic_S1_P4E.1_K4.1_C4.1_H4.1_A4.1_[T5G]_[A6T]_[T7G]_F4.1_[A9C]_T4.1] was 1370 nM; that for UCUCUUUGUACGAACUCUCUU (ssRNA) [Ic_S1_P4E.1_K4.1_C4.1_H4.1_A4.1_[T5C]_[A6G]_[T7A]_F4.1_[T8A]_[A9C]_T4.1] was 985 nM; that for UCUCUUUGUACGGCGUCUCUU (ssRNA) [Ic_S1_P4E.1_K4.1_C4.1_H4.1_A4.1_[T5C]_[A6G]_[T7G]_F4.1_[T8C]_[A9G]_T4.1] was > 2300 nM.
